Assay results as given in patent US9023767B2, “γ-Secretase substrates and methods of use” (Memorial Sloan-Kettering Cancer Center, priority 2009, dated 2015).
Where a SMILES comes first, the peptide text is derived from it. [ ]: non-standard residue; d: D form. The star is where a group is joined. Biotin = O=C1N[C@H]2[C@H](CS[C@H]2CCCCC(=O)*)N1; Bpa = N[C@@H](Cc1ccc(C(=O)c2ccccc2)cc1)C(=O)O; Sta = CC(C)C[C@H](N)[C@@H](O)CC(=O)O; Isovaleryl = CC(C)CC(=O)*

Key:
[1] = target: T1, γ-secretase (Homo sapiens (Human), UniProt P49768+Q92542); experiment: Photoaffinity labeling of γ-secretase in HeLa membrane by Aβ17-23BPA20-biotin; format: binding; conditions: probe 300 nM
Protocol: FIG. 4. […] Various concentrations of inhibitor were incubated with APP substrate (S4) or Notch peptide substrate containing the C-terminal biotinylated transmembrane domain of Notch1 and HeLa cell membrane in the presence of 0.25% CHAPSO. Aβ40 was detected by G2-10 antibody. The cleaved Notch product was detected by Val1744 antibody that specifically recognizes the cleaved product between Gly1743 and Val1744. Activities are expressed as percentage relative to reading that was produced in DMSO control. […] Various concentrations of S4 substrate were incubated with HeLa membrane in fixed concentrations of inhibitor as indicated. The double reciprocal velocity (1/v) and substrate concentrations (1/S) are plotted to determine the type of inhibition. […] Assays were conducted as described in FIG. 4A. […] The labeled samples were solubilized with RIPA buffer. Biotinylated proteins were captured with streptavidin-agarose and probed by immunoblotting using antibodies against biotin, PS1-CTF, PS1-NTF, Nicastrin, PEN-2 and APH-1a. HeLa cell membrane proteins were directly loaded onto lanes indicated by an arrow in the PEN-2 and APH-1a blots as positive controls. […] Upper panel: PS1-NTF; Lower panel: PS1-CTF.
The labeled proteins were eluted with 2×SDS sample buffer and analyzed with Western blotting using antibodies against the components of γ-secretase complex. Protein concentration was determined with the Dc protein assay kit (Bio-Rad)
After the photolyzed membranes were solubilized, biotinylated proteins were captured, eluted and analyzed by western blotting with antibodies against biotin, PS1, nicastrin, PEN-2 and APH-1.

[2] = target: T2, γ-secretase (Homo sapiens (Human), UniProt P49768); experiment: HTRF γ-secretase assay with Sb4 substrate; format: biochemical; conditions: for pilot screen result: 10 μM, 1536-well
From the text: We set out to transfer the assay conditions obtained with the ECL method to an HTRF detection based format (FIG. 10b). The HTRF detection mixture consisted of mouse G2-10 antibody for recognition of the C-terminal epitope of the cleaved product, a Europium-labeled anti-mouse antibody (commonly, an antibody is conjugated with a cryptate ligand that forms a three dimensional coordination cage structure surrounding a lanthanide such as Eu^3+), along with Streptavidin conjugated to a trimeric form of the fluorescent protein allophycocyanin referred to as XL665. Cleavage of Sb4 substrate allows G2-10 mouse antibody to bind to the Aβ40-processed site on the cleaved substrate. The Steptavidin-XL665 conjugate binds directly with the biotin moiety on the N-terminal end of the Sb4 derived product. The anti-mouse Europium antibody targets to the G2-10 antibody, bringing all of these entities into close proximity. The Europium and XL665 reagents are a compatible pair of donor-acceptor fluorophores, and excitation of Europium at 337 nm results in fluorescence energy resonance transfer (FRET) to XL665 which fluoresces at 665 nm (FIG. 10b).
Human γ-secretase was prepared from HeLa cell membranes as described previously (Li et al., 2000). Briefly, HeLa cell pellet was resuspended in 1×MES buffer (50 mM MES, pH 6.0, 150 mM KCl, 5 mM CaCl2, 5 mM MgCl2) and treated with ‘complete’ protease inhibitor (Boehringer Mannheim). The resuspended pellet was mechanically homogenized by passing the cells through the French Press (Spectronic Instruments), and subsequently spun down at 800 g to remove cell debris and nuclei. Next, the supernatants were spun at 100,000 g in order to pellet the membranes. The pelleted membranes were resuspended in 1×MES buffer to approximately 12 mg/ml. This entire procedure was performed at 4° C. HeLa membranes were solubilized using 1% CHAPSO detergent in 1×MES buffer with protease inhibitors. After incubating for 1 hr at 4° C., the membrane was spun down at 100,000 g and the supernatants were collected and stored at −70° C. The collected fraction is defined as solubilized γ-secretase.
HTRF conditions were initially optimized in a 384-well format using a final volume of 20 μl. The high control for this assay was defined as the observed γ-secretase activity in the presence of 1% DMSO (v/v) and the low control as the activity observed when including 100 nM final concentration of Compound E (v/v). First, we determined a tolerable DMSO concentration that would not interfere with γ-secretase activity. Even with 3% DMSO (v/v) present in the assay mixture, there was virtually no effect on the γ-secretase activity (FIG. 11a), which was critical as delivery of library screening compounds required a final concentration of 2% DMSO (v/v) in the γ-secretase reaction. Next, we titrated the HTRF mixture components in an effort to minimize reagent costs for use in high throughput screening. […] Additionally, we varied Europium conjugated anti-mouse antibody and determined that 1 nM of this reagent in the HTRF mixture was sufficient for our assay conditions even though the signal continued to increase with higher concentrations of the anti-mouse antibody (FIG. 11c).
We have further miniaturized the HTRF assay from the established 384-well format to a 1536-well platform enabling more efficient screening of large chemical libraries. […] Based on these optimization experiments, we set our final assay conditions at 0.3 nM G2-10, 1 nM anti-mouse antibody, 15 nM Streptavidin-XL665, and proceeded with the assay at 10 μl final volume (5 μl γ-secretase mix+5 μl HTRF mix) in the 1536-well format for screening.
The pilot assay was performed in duplicate on two separate days to account for any day-to-day variability. […]

[3] = target: T1, γ-secretase; experiment: In vitro γ-secretase assay, HeLa membrane, APP-derived substrates, ECL detection; format: biochemical; conditions: for γ-secretase activity %: cleavage of the substrate at the Aβ40 site, HeLa membrane, G2-10 antibody; for effect on γ-secretase processing of the S3 substrate (in trans): peptide 0.1, 1 and 10 μM, S3 0.5, 1 and 2 μM; for inhibition of X40 production / suppression of Aβ production: 1 μM βCTF substrate
Protocol: The recombinant proteins were incubated with γ-secretase (40 μg/ml) in the presence or absence of 1 μM γ-secretase inhibitor L-685,458 (CAS [292632-98-5], shown below). The reaction mixture contains 0.25% 3[(3-cholamidopropyl) dimethylammonio]-2-hydroxypropanesulfonic acid (CHAPSO), 0.1 μg/μl BSA, protease inhibitor, 50 mM PIPES, pH 7.0, 5 mM MgCl2, 5 mM CaCl2 and 150 mM KCl. The reaction was incubated for 2.5 hr at 37° C. and stopped by adding RIPA buffer (150 mM NaCl, 1.0% NP-40, 0.5% sodium
[drawing 1] deoxycholate, 0.1% SDS, 50 mM Tris HCl, pH 8.0). The products were detected with various antibody combinations as previously described (Lai et al., 2003; J. Biol. Chem., 278: 22475-22481; Li et al., 2000, Proc. Natl. Acad. Sci. USA, 97: 6138-6143; Yin et al., 2007, J. Biol. Chem., 282:23639-23644) using electrochemiluminescence (ECL). The amount of product was determined using synthetic peptide or recombinant standards. The Km and Vmax were determined from the Michaelis-Menten equation Michaelis-Menten Kinetics (ν=Vm[S]/([…]; ν: initial rate; Vm: maximum velocity; Km: the Michaelis-Menten constant, S: substrate). P-values were calculated from Student t-test. 7.1.5 Cell-Based Aβ Production Assay and Western Blot

[4] = target: T2, γ-secretase; experiment: In vitro γ-secretase assay, solubilized γ-secretase, ECL; format: biochemical; conditions: substrate 1 μM, background with Compound E
From the text: The γ-secretase cleaved Aβ product derived from C100Flag substrate was detected by a pair of antibodies (biotinylated 4G8 and ruthenylated G2-10*) while Sb4 cleaved product was detected by ruthenylated G2-10* alone (FIG. 10a) and quantified using electrochemiluminescence (ECL) technology.
An in vitro assay was based on the one previously reported by Li et al. (2000), except we utilized Sb4 substrate that eliminated the need for biotinylated antibody. […] All assays incorporate ruthenylated G2-10* antibody to detect 40-site cleavage of APP or recombinant Sb4 substrate and quantitated activity by measuring ECL.

CC(C)C[C@H](N)C(=O)N[C@H](C(=O)N[C@@H](Cc1ccccc1)C(=O)N[C@@H](Cc1ccc(C(=O)c2ccccc2)cc1)C(=O)N[C@@H](C)C(=O)N[C@@H](CCC(=O)O)C(=O)N[C@@H](CC(=O)O)C(=O)N[C@@H](CCCCNC(=O)CCCC[C@@H]1SC[C@@H]2NC(=O)N[C@@H]21)C(=O)O)C(C)C [Aβ17-23BPA^20-biotin] (H-LVF[Bpa]AEDK(Biotin)-OH; N-terminus and C-terminus assumed)
photolabeled bands, PS1 [1]: co-migrated with PS1-CTF and PS1-NTF | photolabeling of PEN-2 and APH1a [1]: not PEN-2 or APH1a | photolabeling of nicastrin [1]: labels nicastrin

N.N.[Cl][Pt][Cl] [Cisplatin]
pilot screen result [2]: active compound

CC(C)CC(=O)N[C@H](C(=O)N[C@H](C(=O)N[C@@H](CC(C)C)[C@@H](O)CC(=O)N[C@@H](C)C(=O)N[C@@H](CC(C)C)[C@@H](O)CC(=O)O)C(C)C)C(C)C [Pepstatin A] (Isovaleryl-VV[Sta]A[Sta]-OH)
pilot screen result [2]: active compound | IC50 ([2]; dose response, read-out: IC50, HTRF assay): 6.43 µM

O=C(O)CCCC[C@@H]1SC[C@@H]2NC(=O)N[C@@H]21 [biotin]
pilot screen result [2]: active hit

AviTag-KGAIIGLMVGGVVIATVIVITLVMLKKK [S1]
γ-secretase activity % [3]: 100 ± 4.2%

AviTag-LVFFAEDVGSNKGAIIGLMVGGVVIATVIVITLVMLKKK [S2]
γ-secretase activity % [3]: None

Aβ1-7: Aβ1-16 derived synthetic peptide (DAEFRHD; Amyloid-beta protein 42; UniProt P05067 672-678, looked up, fragment)
inhibition of γ-secretase activity, APP processing [3]: no inhibition | effect on γ-secretase processing of the S3 substrate (in trans) [3]: no difference

Aβ8-16: Aβ1-16 derived synthetic peptide (SGYEVHHQK; Amyloid-beta protein 42; UniProt P05067 679-687, looked up, fragment)
effect on γ-secretase processing of the S3 substrate (in trans) [3]: no difference

C100Flag: truncated APP protein used in previously published γ-secretase assays
ratio of signal to background [4]: 7 to 1

P3-42: synthetic P3 peptide Aβ17-42 (LVFFAEDVGSNKGAIIGLMVGGVVIA; Amyloid-beta protein 42; UniProt P05067 688-713, looked up, fragment)
inhibition of Aβ40 production ([3]; 1, 3, 10 and 30 nM, βCTF or βCTFΔ substrate): did not inhibit

αCTF: recombinant α-secretase cleaved APP C-terminal fragment
inhibition of X40 production ([3]; 0.25 μM): 24% | suppression of Aβ production ([3]; 0.25 μM): 66% | inhibition of X40 production ([3]; 0.5 μM): 32% | suppression of Aβ production ([3]; 0.5 μM): 71% | inhibition of X40 production ([3]; 1.0 μM): 60% | suppression of Aβ production ([3]; 1.0 μM): 82%

βCTF: recombinant β-secretase cleaved APP C-terminal fragment
Vmax ([3]; Aβ40 product, 6E10/G2-10, ECL): 16 ± 1 min⁻¹ µg⁻¹ | Km ([3]; Aβ40 product, 6E10/G2-10, ECL, read-out: apparent Km): 0.47 ± 0.09 µM | rate of γ-secretase hydrolysis relative to αCTF-FLAG ([3]; X40 production, 4G8/G2-10 antibodies): 12 fold

B1: Sb4: biotinylated AviTag-APP695(620-695) recombinant substrate (protein, listed as Homo sapiens)
chain: GLNDIFEAQKIEWHEVGSNKGAIIGLMVGGVVIATVIVITLVMLKKKQYTSIHHGVVEVDAAVTPEERHLSKMQQNGYENPTYKFFEQMQN
modifications: biotinylated
notes: biotinylated AviTag-APP695(620-695) recombinant substrate
ratio of signal to background [4]: 93 to 1

B2: S3: AviTag substrate from Aβ17 with C-terminal tail of APP and FLAG (protein, listed as Homo sapiens)
chain: GLNDIFEAQKIEWHELVFFAEDVGSNKGAIIGLMVGGVVIATVIVITLVMLKKKQYTSIHHGVVEVDAAVTPEERHLSKMQQNGYENPTYKFFEQMQNDYKDDDDK
γ-secretase activity % [3]: None
